The values that follow come from patent publication US20150329644A1 (BRIGHAM AND WOMEN S HOSPITAL, published 2015).

The test deals with T1, Human LSD2 (residues 51-822) with N-terminal extra residues GPGS, as used for co-crystallization (human, UniProt Q8NB78 51-822).
T1 construct: range 51-822; Construct of the LSD2-NPAC (PDB 4GUT) and LSD2-NPAC-H3K4M (PDB 4GUS, 4GUR) co-crystals; also called KDM1b; AOF1
T1 sequence: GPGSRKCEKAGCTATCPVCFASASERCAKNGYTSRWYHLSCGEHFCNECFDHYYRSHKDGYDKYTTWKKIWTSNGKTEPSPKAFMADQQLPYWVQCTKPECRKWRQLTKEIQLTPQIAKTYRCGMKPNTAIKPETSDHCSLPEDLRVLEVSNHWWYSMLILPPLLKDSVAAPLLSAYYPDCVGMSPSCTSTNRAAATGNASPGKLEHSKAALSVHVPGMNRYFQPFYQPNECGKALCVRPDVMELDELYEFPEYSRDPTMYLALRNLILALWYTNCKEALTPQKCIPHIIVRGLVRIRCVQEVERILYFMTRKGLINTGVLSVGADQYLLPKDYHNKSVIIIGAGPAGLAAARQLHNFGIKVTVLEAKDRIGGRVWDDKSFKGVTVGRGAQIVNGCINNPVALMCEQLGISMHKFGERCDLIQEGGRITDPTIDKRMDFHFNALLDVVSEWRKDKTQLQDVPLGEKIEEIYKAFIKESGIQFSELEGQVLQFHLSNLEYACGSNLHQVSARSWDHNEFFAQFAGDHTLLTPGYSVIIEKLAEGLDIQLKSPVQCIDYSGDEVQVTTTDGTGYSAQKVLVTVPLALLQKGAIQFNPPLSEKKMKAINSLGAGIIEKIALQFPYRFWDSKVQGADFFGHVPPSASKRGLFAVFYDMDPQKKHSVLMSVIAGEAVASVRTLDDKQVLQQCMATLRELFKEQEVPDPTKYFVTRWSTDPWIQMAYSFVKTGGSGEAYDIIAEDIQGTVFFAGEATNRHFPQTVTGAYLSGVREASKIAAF
The experiment in a line: co-crystal structures of LSD2 with the NPAC linker region (residues 152-268).

Method: Crystallization and Data Collection. All crystals were grown using the hanging-drop vapor diffusion method. […] All crystals were examined on X8 Proteum system (Bruker AXS) and data sets were collected on beamline BL17U at Shanghai Synchrotron Radiation Facility (Shanghai, China).

B1: NPAC linker region (residues 152-268), as used for co-crystallization (other)
chain: SERGSKSPLKRAQEQSPRKRGRPPKDEKDLTIPESSTVKGMMAGPMAAFKWQPTASEPVKDADPHFHHFLLSQTEKPAVCYQAITKKLKICEEETGSTSIQAADSTAVNGSITPTDK
notes: Expressed with His6 and GST tags that were removed by 3C protease
Turning to B1, the binding result is on record as “binds”.
